Read-outs that look alike come from different tables or passages of the source. No end group written: not given here.
B1: soluble IL-2Rβ 31–230 (residues 31–230 of the IL-2Rβ chain, most of the extracellular part) (domain or fragment, human, UniProt P14784 31-230, looked up)
chain: TSQFTCFYNSRANISCVWSQDGALQDTSCQVHAWPDRRRWNQTCELLPVSQASWACNLILGAPDSQKLTTVDIVTLRVLCREGVRWRVMAIQDFKPFENLRLMAPISLQVVHVETHRCNISWEISQASHYFERHLEFEARTLSPGHTWEEAPLLTLKQKQEWICLETLTPDTQYEFQVRVKPLQGEFTTWSPWSQPLAFR

Assays:
[1] = Diffusion–sedimentation equilibrium; type: physicochemical; conditions: 150 μM peptide
[2] = molecular target: the molecule itself; assay: AUC
[3] = molecular target: the molecule itself; assay: AUC; remark: listed apart in the source
[4] = molecular target: the molecule itself; assay: AUC; remark: listed apart in the source
[5] = molecular target: the molecule itself; assay: AUC; remark: listed apart in the source

Molecule | stoichiometry N [2] | stoichiometry N [3] | further results
SSTKKTQLQLQ [p5–15] | – | – | quaternary structure at 150 μM [1]: dimers
APTSSSTKKTQLQLEHLLLDLQMILNGINNC [IL-2 peptide p1–30Cys] | 4 | 8 | –
B1 | – | – | Kd [4]: 3000 nM; stoichiometry N [4]: 2
APTSSSTKKTQLQLEHLLLDLQMILNGINNC(fluorescein)-NH2 [p1–30Cys labeled on the terminal Cys31 with a fluorescein group (p1–30Cys-FLC)] | 4 | 8 | –
TQLQLEHLLLDLQMILNGINN [IL-2 peptide p10–30] | – | – | stoichiometry N [5]: 4
APTSSSTKKTQLQLEHLLLDLQMILNGINN-NH2 [peptide p1–30 (amino acids 1–30 of human IL-2, covering the entire α helix A)] | – | 8 | –
